Data published in patent publication US20240124607A1 (Merck Sharp & Dohme, published 2024).

T1: Human CEACAM5 I80V V83A I112V I113T (human, UniProt P06731 35-685, limits assumed)
T1 chain: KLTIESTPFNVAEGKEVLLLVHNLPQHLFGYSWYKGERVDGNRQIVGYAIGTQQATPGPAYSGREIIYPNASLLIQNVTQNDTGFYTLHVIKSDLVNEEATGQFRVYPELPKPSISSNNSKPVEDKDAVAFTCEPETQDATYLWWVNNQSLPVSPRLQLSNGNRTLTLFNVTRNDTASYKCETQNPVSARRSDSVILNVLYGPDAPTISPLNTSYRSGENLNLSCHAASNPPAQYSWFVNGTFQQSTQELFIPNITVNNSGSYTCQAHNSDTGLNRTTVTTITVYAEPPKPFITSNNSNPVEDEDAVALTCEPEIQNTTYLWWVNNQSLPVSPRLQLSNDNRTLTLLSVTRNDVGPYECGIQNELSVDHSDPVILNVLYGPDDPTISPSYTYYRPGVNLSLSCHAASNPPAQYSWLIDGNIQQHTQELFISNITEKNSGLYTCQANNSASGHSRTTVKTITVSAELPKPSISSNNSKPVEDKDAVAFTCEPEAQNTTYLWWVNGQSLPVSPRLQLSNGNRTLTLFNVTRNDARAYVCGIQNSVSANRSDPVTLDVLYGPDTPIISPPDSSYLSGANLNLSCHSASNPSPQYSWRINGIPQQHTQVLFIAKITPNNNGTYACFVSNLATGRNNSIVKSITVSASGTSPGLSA

T2: Human CEACAM5 I112V (human, UniProt P06731 35-685, limits assumed)
T2 sequence: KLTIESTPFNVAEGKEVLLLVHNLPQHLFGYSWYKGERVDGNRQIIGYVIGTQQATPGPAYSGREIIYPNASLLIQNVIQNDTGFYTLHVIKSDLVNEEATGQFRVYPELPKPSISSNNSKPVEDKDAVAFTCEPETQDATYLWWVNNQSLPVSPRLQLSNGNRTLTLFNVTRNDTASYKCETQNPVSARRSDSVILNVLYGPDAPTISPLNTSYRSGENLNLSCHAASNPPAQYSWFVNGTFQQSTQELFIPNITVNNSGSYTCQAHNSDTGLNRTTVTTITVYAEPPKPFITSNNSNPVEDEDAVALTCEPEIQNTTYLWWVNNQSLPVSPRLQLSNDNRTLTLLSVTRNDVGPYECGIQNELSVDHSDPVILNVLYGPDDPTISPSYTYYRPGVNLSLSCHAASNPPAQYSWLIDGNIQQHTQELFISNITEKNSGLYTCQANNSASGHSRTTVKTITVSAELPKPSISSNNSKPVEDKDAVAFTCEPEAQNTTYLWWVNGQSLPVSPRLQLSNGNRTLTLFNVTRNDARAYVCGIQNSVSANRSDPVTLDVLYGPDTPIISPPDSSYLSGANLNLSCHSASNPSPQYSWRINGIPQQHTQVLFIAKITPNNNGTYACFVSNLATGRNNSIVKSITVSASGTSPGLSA

T3: hCEACAM5 A2-B2 domain (human, UniProt P06731 323-500, limits assumed)
T3 sequence: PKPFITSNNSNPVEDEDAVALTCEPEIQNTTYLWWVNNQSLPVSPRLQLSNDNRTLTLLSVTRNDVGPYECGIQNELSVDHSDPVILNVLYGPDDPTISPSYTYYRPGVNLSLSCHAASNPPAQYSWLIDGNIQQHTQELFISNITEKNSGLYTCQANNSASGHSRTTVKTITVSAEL

T4: hCEACAM5 A3-B3 domain (human, UniProt P06731 501-685, limits assumed)
T4 sequence: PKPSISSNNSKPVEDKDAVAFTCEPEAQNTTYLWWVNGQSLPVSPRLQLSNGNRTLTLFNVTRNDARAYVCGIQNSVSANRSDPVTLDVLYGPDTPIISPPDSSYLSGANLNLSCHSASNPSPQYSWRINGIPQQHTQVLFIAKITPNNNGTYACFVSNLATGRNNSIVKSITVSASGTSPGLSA

T5: soluble mouse Fc-human NKG2D dimer (human, UniProt P26718 78-216, limits assumed)
T5 construct: also called NKG2D-mFc; human NKG2D fused to a mouse Fc
T5 sequence (looked up): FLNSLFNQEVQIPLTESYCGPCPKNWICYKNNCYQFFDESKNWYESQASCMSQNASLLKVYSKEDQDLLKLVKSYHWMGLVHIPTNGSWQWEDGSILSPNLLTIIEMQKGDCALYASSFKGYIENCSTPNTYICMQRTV

T6: Cyno NKG2D-mFc (cynomolgus monkey, UniProt P61252 78-216, limits assumed)
T6 construct: also called cynomolgus NKG2D fused to a mouse Fc
T6 sequence (looked up): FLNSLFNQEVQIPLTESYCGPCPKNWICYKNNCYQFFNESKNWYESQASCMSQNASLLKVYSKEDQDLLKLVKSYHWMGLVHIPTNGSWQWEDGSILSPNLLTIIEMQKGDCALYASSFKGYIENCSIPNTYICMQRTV


What was measured:
[1] = target: T1, Human CEACAM5 I80V V83A I112V I113T; assay: SPR, 37C, pH 7.4
Human CEACAM5 I112V = target: T2, Human CEACAM5 I112V; assay: SPR, 37C, pH 7.4
hCEACAM5 A2-B2 domain = target: T3, hCEACAM5 A2-B2 domain; assay: SPR with hCEACAM5 domains
Protocol: (§1) If the protein domain was an Fc fusion, AB0411, AB0466, AB0264, or AB0621 were captured using an anti-human Fab antibody (Cytiva, #28958325) immobilized onto a CM5 chip. The various hCEACAM5 protein domains (N-term, A1-B1, A2, B2, A3, or B3) were titrated over the captured TriNKETs at 50 μL/min for 180 sec of association and 300 sec of dissociation. The assay was run at 25° C. in HBS-EP+ running buffer, pH 7.4. The surface of the CM5 chip was regenerated using […] glycine pH 2.1.
(§2) The various hCEACAM5 protein domains were titrated over the captured antibody at 50 μL/min for 180 sec of association and 300 sec of dissociation. The assay was run at 37° C. in HBS-EP+ running buffer, pH 7.4. The surface of the CM5 chip was regenerated using 3M MgCl₂.

hCEACAM5 A3-B3 domain = target: T4, hCEACAM5 A3-B3 domain; assay: SPR with hCEACAM5 domains
Protocol: as §1, §2

[2] = target: T5, soluble mouse Fc-human NKG2D dimer; assay: SPR, NKG2D-mFc captured, 37C, pH 6.0
Protocol: (§3) Binding to NKG2D was assessed by SPR using a mouse Fc capture kit (Cytiva, #BR100838) immobilized onto a CM5 chip. Human and cynomolgus NKG2D fused to a mouse Fc were captured and AB0411, AB0466, or AB0621 was titrated from 600 nM.

Cyno NKG2D-mFc = target: T6, Cyno NKG2D-mFc; assay: SPR, NKG2D-mFc captured, 37C, pH 6.0
Protocol: as §3

Row | Kd [1] [nM] | kon [1] [M⁻¹ s⁻¹] | Kd (Human CEACAM5 I112V) [nM] | kon (Human CEACAM5 I112V) [M⁻¹ s⁻¹] | binding result (hCEACAM5 A2-B2 domain) | binding result (hCEACAM5 A3-B3 domain) | Kd [2] [nM] | koff [2] [s⁻¹] | kon [2] [M⁻¹ s⁻¹] | Kd (Cyno NKG2D-mFc) [nM] | koff (Cyno NKG2D-mFc) [s⁻¹] | kon (Cyno NKG2D-mFc) [M⁻¹ s⁻¹] | Binder
1 | 61 | 590000 | 11 | 130000 | no binding | no binding | 480 | 0.12 | 240000 | 420 | 0.11 | 310000 | AB0466 F3' CEACAM5 TriNKET (bispecific antibody, human IgG1, kappa) not shown heavy: EVQLVESGGGLVKPGGSLRLSCAASGFTFSSYSMNWVRQAPGKGLEWVSSISSSSSYIYYADSVKGRFTISRDNAKNSLYLQMNSLRAEDTAVYYCARGAPIGAAAGWFDPWGQGTLVTVSSASTKGPSVFPLAPSSKSTSGGTAALGCLVKDYFPEPVTVSWNSGALTSGVHTFPAVLQSSGLYSLSSVVTVPSSSLGTQTYICNVNHKPSNTKVDKKVEPKSCDKTHTCPPCPAPELLGGPSVFLFPPKPKDTLMISRTPEVTCVVVDVSHEDPEVKFNWYVDGVEVHNAKTKPREEQYNSTYRVVSVLTVLHQDWLNGKEYKCKVSNKALPAPIEKTISKAKGQPREPQVCTLPPSRDELTENQVSLTCLVKGFYPSDIAVEWESNGQPENNYKTTPPVLDSDGSFFLYSWLTVDKSRWQQGNVFSCSVMHEALHNHYTQKSLSLSPG light: DIQMTQSPSSVSASVGDRVTITCRASQGISSWLAWYQQKPGKAPKLLIYAASSLQSGVPSRFSGSGSGTDFTLTISSLQPEDFATYYCQQGVSFPRTFGGGTKVEIKRTVAAPSVFIFPPSDEQLKSGTASVVCLLNNFYPREAKVQWKVDNALQSGNSQESVTEQDSKDSTYSLSSTLTLSKADYEKHKVYACEVTHQGLSSPVTKSFNRGEC
2 | 22 | 64000 | 38 | 42000 | no binding | no binding | 240 | 0.056 | 240000 | 300 | 0.045 | 150000 | AB0621 F3' CEACAM5 TriNKET (bispecific antibody, human IgG1, kappa) DIVMTQSPDSLAVSLGERATINCKSSHSLLYGNFQNNYLAWYQQKPGQPPKLLIYWASTRESGVPDRFSGSGSGTDFTLTISSLQAEDVAVYYCQQYYSYPYTFGCGTKLEIKGGGGSGGGGSGGGGSGGGGSQVQLVQSGAEVKKPGASVKVSCKASGYTFTAYTIHWVRQAPGQCLEWMGYINPSSGYTEYNQKFKDRTTLTADTSISTAYMELSRLRSDDTAVYYCTREGGLLWFDYWGQGTLVTVSSGSDKTHTCPPCPAPELLGGPSVFLFPPKPKDTLMISRTPEVTCVVVDVSHEDPEVKFNWYVDGVEVHNAKTKPREEQYNSTYRVVSVLTVLHQDWLNGKEYKCKVSNKALPAPIEKTISKAKGQPREPRVYTLPPCRDELTKNQVSLTCLVKGFYPSDIAVEWESNGQPENNYKTTPPVLVSDGSFTLYSKLTVDKSRWQQGNVFSCSVMHEALHNHYTQKSLSLSPG heavy: EVQLVESGGGLVKPGGSLRLSCAASGFTFSSYSMNWVRQAPGKGLEWVSSISSSSSYIYYADSVKGRFTISRDNAKNSLYLQMNSLRAEDTAVYYCARGAPIGAAAGWFDPWGQGTLVTVSSASTKGPSVFPLAPSSKSTSGGTAALGCLVKDYFPEPVTVSWNSGALTSGVHTFPAVLQSSGLYSLSSVVTVPSSSLGTQTYICNVNHKPSNTKVDKKVEPKSCDKTHTCPPCPAPELLGGPSVFLFPPKPKDTLMISRTPEVTCVVVDVSHEDPEVKFNWYVDGVEVHNAKTKPREEQYNSTYRVVSVLTVLHQDWLNGKEYKCKVSNKALPAPIEKTISKAKGQPREPQVCTLPPSRDELTENQVSLTCLVKGFYPSDIAVEWESNGQPENNYKTTPPVLDSDGSFFLYSWLTVDKSRWQQGNVFSCSVMHEALHNHYTQKSLSLSPG light: DIQMTQSPSSVSASVGDRVTITCRASQGISSWLAWYQQKPGKAPKLLIYAASSLQSGVPSRFSGSGSGTDFTLTISSLQPEDFATYYCQQGVSFPRTFGGGTKVEIKRTVAAPSVFIFPPSDEQLKSGTASVVCLLNNFYPREAKVQWKVDNALQSGNSQESVTEQDSKDSTYSLSSTLTLSKADYEKHKVYACEVTHQGLSSPVTKSFNRGEC
3 |  |  |  |  | no binding | no binding |  |  |  |  |  |  | AB0264 F3' CEACAM5 TriNKET (bispecific antibody, human IgG1, kappa) DIVMTQSPDSLAVSLGERATINCKSSHSLLYGNFQNNYLAWYQQKPGQPPKLLIYWASTRESGVPDRFSGSGSGTDFTLTISSLQAEDVAVYYCQQYYSYPYTFGCGTKLEIKGGGGSGGGGSGGGGSGGGGSQVQLVQSGAEVKKPGASVKVSCKASGYTFTAYTIHWVRQAPGQCLEWMGYINPSSGYTEYNQKFKDRTTLTADTSIPTAYMELSRLRSDDTAVYYCTREGGLLWFDYWGQGTLVTVSSGSDKTHTCPPCPAPELLGGPSVFLFPPKPKDTLMISRTPEVTCVVVDVSHEDPEVKFNWYVDGVEVHNAKTKPREEQYNSTYRVVSVLTVLHQDWLNGKEYKCKVSNKALPAPIEKTISKAKGQPREPRVYTLPPCRDELTKNQVSLTCLVKGFYPSDIAVEWESNGQPENNYKTTPPVLVSDGSFTLYSKLTVDKSRWQQGNVFSCSVMHEALHNHYTQKSLSLSPG heavy: EVQLVESGGGLVKPGGSLRLSCAASGFTFSSYSMNWVRQAPGKGLEWVSSISSSSSYIYYADSVKGRFTISRDNAKNSLYLQMNSLRAEDTAVYYCARGAPIGAAAGWFDPWGQGTLVTVSSASTKGPSVFPLAPSSKSTSGGTAALGCLVKDYFPEPVTVSWNSGALTSGVHTFPAVLQSSGLYSLSSVVTVPSSSLGTQTYICNVNHKPSNTKVDKKVEPKSCDKTHTCPPCPAPELLGGPSVFLFPPKPKDTLMISRTPEVTCVVVDVSHEDPEVKFNWYVDGVEVHNAKTKPREEQYNSTYRVVSVLTVLHQDWLNGKEYKCKVSNKALPAPIEKTISKAKGQPREPQVCTLPPSRDELTENQVSLTCLVKGFYPSDIAVEWESNGQPENNYKTTPPVLDSDGSFFLYSWLTVDKSRWQQGNVFSCSVMHEALHNHYTQKSLSLSPG light: DIQMTQSPSSVSASVGDRVTITCRASQGISSWLAWYQQKPGKAPKLLIYAASSLQSGVPSRFSGSGSGTDFTLTISSLQPEDFATYYCQQGVSFPRTFGGGTKVEIKRTVAAPSVFIFPPSDEQLKSGTASVVCLLNNFYPREAKVQWKVDNALQSGNSQESVTEQDSKDSTYSLSSTLTLSKADYEKHKVYACEVTHQGLSSPVTKSFNRGEC
